Source: patent US8642734

Experiment: dynamic light scattering; self-association of NT below pH 6.4

B1: NT, N-terminal fragment of major ampullate spidroin (MaSp) 1 from Euprosthenops australis (protein)
chain: GSGNSHTTPWTNPGLAENFMNSFMQGLSSMPGFTASQLDDMSTIAQSMVQSIQSLAAQGRTSPNKLQALNMAFASSMAEIAASEEGGGSLSTKTSSIASAMSNAFLQTTGVVNQPFINEITQLVSMFAQAGMNDVSA
- hydrodynamic size of polymers: polymers with a hydrodynamic size of ˜700 nm below pH 6.4
